Literature values as cited in article PMC5659385.

Biological target: concanavalin A (Canavalia ensiformis) (UniProt P02866)
UniProt P02866, sequence (P02866 30-148, chain 1 of 2): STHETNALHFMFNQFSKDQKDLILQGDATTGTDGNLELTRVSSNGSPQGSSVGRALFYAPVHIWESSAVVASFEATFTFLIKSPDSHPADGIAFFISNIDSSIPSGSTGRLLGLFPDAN
UniProt P02866, sequence (P02866 164-281, chain 2 of 2): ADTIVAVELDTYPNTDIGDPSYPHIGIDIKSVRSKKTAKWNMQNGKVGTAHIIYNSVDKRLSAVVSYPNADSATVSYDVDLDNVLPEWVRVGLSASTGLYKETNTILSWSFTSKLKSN

## glucose oxidase (from UniProt P13006)
  Kd: 1.64 nM
